This is an account of results in article PMC8262884.

Assay [1] has as its target native phosphoenolpyruvate carboxykinase (PEPCK) (Trypanosoma brucei (endogenous in EATRO1125.T7T procyclic cells)).
The target in assay [2] is TY-tagged phosphoenolpyruvate carboxykinase (TY-PEPCK) (Trypanosoma brucei). Description: proximity ligation; Duolink In Situ Red mouse/rabbit kit on PFA-fixed, Triton X-100-permeabilized Δpepck/TY-PEPCK/UGP-MYC.i procyclic cells; rabbit anti-MYC and mouse anti-TY1; cell lines with only one tagged protein as negative controls.

B1: TY-UGP_(1-485) (enzyme)
chain: MPLNPPSAFSGAALACLEKMQASGVEEKCIHIFLIQHALVRKGETGYIPEKSISPVESLPFLQGIETKGENTALLRQAVVLKLNGGLGTGMGLNGPKSLLQVKNGQTFLDFTALQLEHFRQVRNCNVPFMLMNSFSTSGETKNFLRKYPTLYEVFDSDIELMQNRVPKIRQDNFFPVTYEADPTCEWVPPGHGDVYTVLYSSGKLDYLLGKGYRYMFISNGDNLGATLDVRLLDYMHEKQLGFLMEVCRRTESDKKGGHLAYKDVIDETTGQTRRRFVLRESAQCPKEDEDSFQNIAKHCFFNTNNIWINLMELKKMMDEQLGVLRLPVMRNPKTVNPQDSQSTKVYQLEVAMGAAISLFDRSEAVVVPRERFAPVKTCSDLLALRSDAYQVTEDQRLVLCEERNGKPPAIDLDGEHYKMIDGFEKLVKGGVPSLRQCTSLTVRGLVEFGADVSVRGNVVIKNLKEEPLIIGSGRVLDNEVVVVE
For B1, the glycosomal import of the tagged UGP (Western blot of glycosomal and cytosolic fractions), against native UGP in parental cells in assay [1] was 9 fold.

B2: MYC-tagged UDP-glucose pyrophosphorylase (UGP-MYC) (enzyme)
chain: MPLNPPSAFSGAALACLEKMQASGVEEKCIHIFLIQHALVRKGETGYIPEKSISPVESLPFLQGIETKGENTALLRQAVVLKLNGGLGTGMGLNGPKSLLQVKNGQTFLDFTALQLEHFRQVRNCNVPFMLMNSFSTSGETKNFLRKYPTLYEVFDSDIELMQNRVPKIRQDNFFPVTYEADPTCEWVPPGHGDVYTVLYSSGKLDYLLGKGYRYMFISNGDNLGATLDVRLLDYMHEKQLGFLMEVCRRTESDKKGGHLAYKDVIDETTGQTRRRFVLRESAQCPKEDEDSFQNIAKHCFFNTNNIWINLMELKKMMDEQLGVLRLPVMRNPKTVNPQDSQSTKVYQLEVAMGAAISLFDRSEAVVVPRERFAPVKTCSDLLALRSDAYQVTEDQRLVLCEERNGKPPAIDLDGEHYKMIDGFEKLVKGGVPSLRQCTSLTVRGLVEFGADVSVRGNVVIKNLKEEPLIIGSGRVLDNEVVVVE
B2: in assay [2], the percent of PLA-positive cells was 62%.
